The term Km denotes the substrate concentration at which the rate is half of its maximum. By kcat is commonly meant the number of substrate molecules converted per active site and unit of time at saturation. In general, kcat/Km refers to the second-order rate constant that governs catalysis at low substrate concentration.

Data set [1] addresses T1, ORF1119 (PvGal-ase) (Bacillus sp. HMA207, UniProt Z9IVQ1LJN5, E163A).
T1 construct: full length 469 aa, no signal peptide; pET-32b, N-terminal His5 tag, E. coli BL21(DE3)CodonPlus delta-lacZ, Ni-purified
The experiment in a line: X-ray crystal structure, […] Å. The following applies: co-crystallised with pNP-β-D-PvGal, pNP lost during crystal growth; active site; phosphate-citrate pH 5.2. The format is binding.

In data set [2] the test system is T2, CC1(C(=O)O)OC[C@H]2O[C@@H](Oc3ccc([N+](=O)[O-])cc3)[C@H](O)[C@@H](O)[C@H]2O1.
T2 construct: full length 469 aa, no signal peptide; pET-32b, N-terminal His5 tag, E. coli BL21(DE3)CodonPlus delta-lacZ, Ni-purified
The experiment in a line: discontinuous pNP release, A405. The note with it: 50 mM HEPES-NaOH pH 7.5, 37 °C. The format is biochemical, Bacillus sp. HMA207. An excerpt:
(§1) discontinuous pNP release, A405 on ORF1119 (PvGal-ase)

Data set [3] relates to T3, O=[N+]([O-])c1ccc(O[C@@H]2O[C@H](CO)[C@H](O)[C@H](O)[C@H]2O)cc1.
T3 construct: full length 469 aa, no signal peptide; pET-32b, N-terminal His5 tag, E. coli BL21(DE3)CodonPlus delta-lacZ, Ni-purified
In words: discontinuous pNP release, A405. The format is biochemical, Bacillus sp. HMA207. The following applies: 50 mM HEPES-NaOH pH 7.5.
From the text: as §1

Data set [4] concerns T4, O=[N+]([O-])c1ccc(O[C@@H]2O[C@H](CO)[C@@H](O)[C@H](O)[C@H]2O)cc1.
T4 construct: full length 469 aa, no signal peptide; pET-32b, N-terminal His5 tag, E. coli BL21(DE3)CodonPlus delta-lacZ, Ni-purified
The experiment in a line: discontinuous pNP release, A405. The note with it: 50 mM HEPES-NaOH pH 7.5. The format is biochemical, Bacillus sp. HMA207.
From the text: as §1

In data set [5] the test system is T5, C[C@H]1O[C@@H](Oc2ccc([N+](=O)[O-])cc2)[C@H](O)[C@@H](O)[C@H]1O.
T5 construct: full length 469 aa, no signal peptide; pET-32b, N-terminal His5 tag, E. coli BL21(DE3)CodonPlus delta-lacZ, Ni-purified
The experiment in a line: discontinuous pNP release, A405. The format is biochemical, Bacillus sp. HMA207. The note with it: 50 mM HEPES-NaOH pH 7.5.
From the text: as §1

With `C[C@@]1(C(=O)O)OC[C@H]2OC(O)[C@H](O)[C@@H](O)[C@H]2O1` (stereo partly shown) [PvGal], in data set [1], the “X-ray crystal structure, 2.45 Å” value is “In the complex structure, clear electron density is observed for the PvGal ligand”.
For the compound “ORF1119 (PvGal-ase) (Bacillus sp. HMA207; N430Y)”, in data set [2], the Km came to 370 ± 80 µM, the kcat stood at 7.7 ± 0.2 s⁻¹ and the kcat/Km was 21000 M⁻¹ s⁻¹.
Taken in the same sequence, the figures for “ORF1119 (PvGal-ase) (Bacillus sp. HMA207; N430A)” were 900 ± 160 µM, 7.0 ± 0.2 s⁻¹ and 7700 M⁻¹ s⁻¹.
Take “ORF1119 (PvGal-ase) (Bacillus sp. HMA207; Y436A)”: in data set [2], the Km was 800 ± 180 µM, the kcat turned out to be 0.68 ± 0.03 s⁻¹ and the kcat/Km was 860 M⁻¹ s⁻¹.
Take “ORF1119 (PvGal-ase) (Bacillus sp. HMA207; S427E)”: in data set [3], the Km stood at 890 ± 90 µM, the kcat was determined as 0.13 ± 0.002 s⁻¹ and the kcat/Km turned out to be 149 M⁻¹ s⁻¹. For the same compound, in data set [4], the Km is 460 ± 90 µM, the kcat was 0.05 ± 0.001 s⁻¹ and the kcat/Km was 98 M⁻¹ s⁻¹. Besides, in data set [5], the Km was found to be 470 ± 60 µM, the kcat was determined as 0.91 ± 0.02 s⁻¹ and the kcat/Km was 2000 M⁻¹ s⁻¹.
Take “ORF1119 (PvGal-ase) (Bacillus sp. HMA207; K434A)”: in data set [2], the Km was found to be 730 ± 120 µM, the kcat worked out at 8.8 ± 0.2 s⁻¹ and the kcat/Km is 12000 M⁻¹ s⁻¹.
“ORF1119 (PvGal-ase) (Bacillus sp. HMA207)”: the Km in data set [3] is 3300 ± 400 µM; in data set [2] (37.0 °C), 810 ± 140 µM; in data set [4], 7400 ± 400 µM; in data set [5], 1900 ± 100 µM. Besides, the kcat in data set [3] came to 0.20 ± 0.005 s⁻¹; in data set [2] (37.0 °C), 5.2 ± 0.2 s⁻¹; in data set [4], 0.10 ± 0.002 s⁻¹; in data set [5], 1.6 ± 0.02 s⁻¹. The kcat/Km in data set [3] amounted to 60 M⁻¹ s⁻¹; in data set [2] (37.0 °C), 6300 M⁻¹ s⁻¹; in data set [4] it was 14 M⁻¹ s⁻¹; in data set [5] it was 830 M⁻¹ s⁻¹.
Turning to “ORF1119 (PvGal-ase) (Bacillus sp. HMA207; S427A)”, in data set [2], the Km is 1920 ± 450 µM, the kcat was determined as 4.4 ± 0.3 s⁻¹ and the specificity constant (kcat/Km) was determined as 2300 M⁻¹ s⁻¹.
Taken in the same sequence, the figures for “ORF1119 (PvGal-ase) (Bacillus sp. HMA207; Y436F)” were 530 ± 90 µM, 6.5 ± 0.2 s⁻¹ and 12000 M⁻¹ s⁻¹.

The record behind these values is publication PMC6090015, “Identification and characterization of a novel β-D-galactosidase that releases pyruvylated galactose” (Scientific Reports, 2018).
